Reference: publication PMC9330073, “Cargo Recognition Mechanisms of Yeast Myo2 Revealed by AlphaFold2-Powered Protein Complex Prediction” (Biomolecules, 2022)
Read-outs that look alike come from different tables or passages of the source.

Experiments:
[1] = molecular target: GST-Pea2-CC1 (GST-tagged Pea2-CC1; dimer) (Saccharomyces cerevisiae (strain S288c)) (UniProt P40091); assay: ITC; 500 μM Myo2-GTD in the syringe titrated into 50 μM Kar9-MIS or Pea2-MIS in the cell, 25 °C; one-site binding model
[2] = molecular target: Kar9^N (N-terminal folded domain of Kar9) (Saccharomyces cerevisiae (strain S288c)) (UniProt P32526); assay: as above
[3] = molecular target: Kar9^C (unstructured C-terminal region of Kar9) (Saccharomyces cerevisiae (strain S288c)) (UniProt P32526); assay: as above
[4] = molecular target: GST-Pea2-CC1 (GST-tagged Pea2-CC1; dimer) (Saccharomyces cerevisiae (strain S288c)) (UniProt P40091); assay: SEC-MALS; 100 μL of 100 μM protein on Superdex 200 Increase 10/300 GL; 50 mM Tris-HCl pH 7.5, 100 mM NaCl, 1 mM EDTA, 1 mM DTT
[5] = molecular target: T1, Myo2-GTD (globular tail domain of Myo2) (Saccharomyces cerevisiae (strain S288c), UniProt P19524 1152-1574); assay: ITC
T1 chain: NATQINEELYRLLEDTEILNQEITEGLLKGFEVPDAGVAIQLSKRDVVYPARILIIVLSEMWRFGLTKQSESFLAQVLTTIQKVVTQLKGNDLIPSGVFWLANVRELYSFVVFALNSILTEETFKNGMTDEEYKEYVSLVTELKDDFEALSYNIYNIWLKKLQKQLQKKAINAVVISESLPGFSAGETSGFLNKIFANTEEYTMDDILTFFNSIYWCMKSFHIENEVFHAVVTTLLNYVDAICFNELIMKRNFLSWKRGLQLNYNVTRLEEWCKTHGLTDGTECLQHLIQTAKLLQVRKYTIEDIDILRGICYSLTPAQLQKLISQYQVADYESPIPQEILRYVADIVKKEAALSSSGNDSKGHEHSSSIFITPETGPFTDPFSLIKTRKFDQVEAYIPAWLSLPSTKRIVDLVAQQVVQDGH

[6] = molecular target: T2, Smy1-MIS::Myo2-GTD fusion protein (Saccharomyces cerevisiae | …); assay: ITC
T2 chain: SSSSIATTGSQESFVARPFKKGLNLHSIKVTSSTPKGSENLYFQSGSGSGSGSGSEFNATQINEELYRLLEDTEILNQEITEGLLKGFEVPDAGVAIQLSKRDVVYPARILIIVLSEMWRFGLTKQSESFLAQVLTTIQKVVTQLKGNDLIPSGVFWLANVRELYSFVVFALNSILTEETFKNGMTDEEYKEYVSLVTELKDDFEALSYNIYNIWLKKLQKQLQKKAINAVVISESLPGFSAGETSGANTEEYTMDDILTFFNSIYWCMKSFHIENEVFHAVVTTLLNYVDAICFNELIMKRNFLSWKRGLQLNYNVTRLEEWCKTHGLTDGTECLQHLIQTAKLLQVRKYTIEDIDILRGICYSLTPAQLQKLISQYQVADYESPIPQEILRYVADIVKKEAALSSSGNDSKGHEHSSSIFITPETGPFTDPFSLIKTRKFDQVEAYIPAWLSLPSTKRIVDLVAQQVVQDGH

[7] = molecular target: T1, Myo2-GTD (globular tail domain of Myo2); assay: ITC
Myo2-GTD Y1303A = molecular target: T3, Myo2-GTD Y1303A (Saccharomyces cerevisiae); assay: ITC
T3 chain: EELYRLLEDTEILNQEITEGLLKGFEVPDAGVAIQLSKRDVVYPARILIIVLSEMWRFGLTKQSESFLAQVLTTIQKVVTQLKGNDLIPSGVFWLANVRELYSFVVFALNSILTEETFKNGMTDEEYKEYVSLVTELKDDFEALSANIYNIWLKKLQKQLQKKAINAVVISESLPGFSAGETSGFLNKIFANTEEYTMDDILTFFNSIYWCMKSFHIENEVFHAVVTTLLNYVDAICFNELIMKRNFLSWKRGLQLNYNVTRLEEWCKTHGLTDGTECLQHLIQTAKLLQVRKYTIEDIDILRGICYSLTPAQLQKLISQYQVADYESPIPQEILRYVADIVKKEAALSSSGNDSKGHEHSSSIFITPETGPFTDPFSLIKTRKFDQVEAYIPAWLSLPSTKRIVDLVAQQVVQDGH

Myo2-GTD D1297N = molecular target: T4, Myo2-GTD D1297N (Saccharomyces cerevisiae); assay: ITC
T4 chain: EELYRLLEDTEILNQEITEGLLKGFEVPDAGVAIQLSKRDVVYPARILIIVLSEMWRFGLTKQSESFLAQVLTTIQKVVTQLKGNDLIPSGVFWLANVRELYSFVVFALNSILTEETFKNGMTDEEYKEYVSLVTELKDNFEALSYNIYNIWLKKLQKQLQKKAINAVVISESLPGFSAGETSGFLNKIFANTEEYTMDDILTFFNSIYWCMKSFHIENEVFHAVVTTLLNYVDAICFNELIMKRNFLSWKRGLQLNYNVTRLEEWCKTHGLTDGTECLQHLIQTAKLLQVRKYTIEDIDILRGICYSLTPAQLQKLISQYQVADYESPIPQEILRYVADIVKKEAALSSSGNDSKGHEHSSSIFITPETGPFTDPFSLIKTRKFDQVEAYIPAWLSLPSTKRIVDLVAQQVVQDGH

Myo2-GTD W1407A = molecular target: T5, Myo2-GTD W1407A (Saccharomyces cerevisiae (strain S288c)); assay: ITC
T5 chain: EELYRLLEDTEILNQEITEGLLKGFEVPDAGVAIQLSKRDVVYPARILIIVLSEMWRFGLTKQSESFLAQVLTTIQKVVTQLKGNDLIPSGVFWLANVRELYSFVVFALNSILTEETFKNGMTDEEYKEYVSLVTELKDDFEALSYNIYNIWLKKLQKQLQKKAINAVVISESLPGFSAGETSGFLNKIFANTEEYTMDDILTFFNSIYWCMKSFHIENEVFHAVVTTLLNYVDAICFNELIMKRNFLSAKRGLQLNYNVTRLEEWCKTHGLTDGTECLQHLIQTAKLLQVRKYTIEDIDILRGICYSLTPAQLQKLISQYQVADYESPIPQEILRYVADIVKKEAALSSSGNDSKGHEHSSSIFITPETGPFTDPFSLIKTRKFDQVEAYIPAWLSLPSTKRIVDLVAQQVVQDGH

Myo2-GTD L1331S = molecular target: T6, Myo2-GTD L1331S (Saccharomyces cerevisiae (strain S288c)); assay: ITC
T6 chain: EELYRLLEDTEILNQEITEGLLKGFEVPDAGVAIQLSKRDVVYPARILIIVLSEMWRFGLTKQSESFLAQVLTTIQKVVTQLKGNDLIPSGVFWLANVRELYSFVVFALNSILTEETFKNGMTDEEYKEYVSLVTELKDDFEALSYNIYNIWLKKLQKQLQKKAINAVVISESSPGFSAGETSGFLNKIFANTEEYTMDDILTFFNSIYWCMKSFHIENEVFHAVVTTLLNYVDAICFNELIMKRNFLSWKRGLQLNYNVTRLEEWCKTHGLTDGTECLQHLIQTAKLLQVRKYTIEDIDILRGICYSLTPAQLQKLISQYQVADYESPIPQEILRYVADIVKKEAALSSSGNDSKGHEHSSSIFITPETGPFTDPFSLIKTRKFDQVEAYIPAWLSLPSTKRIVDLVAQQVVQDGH

Q: “Myo2-GTD (globular tail domain of Myo2) (from UniProt P19524 1152-1574) (domain or fragment)” was tested. Which fold enhancement of the binding affinity over the Pea2-CC1 monomer [1] did it give?
A: 5 fold

Q: And the stoichiometry N [1]?
A: 0.5

Q: What about the Kd [2] of the same molecule?
A: 16 µM

Q: And the Kd [3]?
A: 3 µM

Q: How did the stoichiometry N [4] turn out when “GST-Pea2-CC1 (GST-tagged Pea2-CC1; dimer) (from UniProt P40091 235-327) (domain or fragment)” was run?
A: 2

B1: Kar9 413-530 (protein)
chain: KKKIPKPKSLGFGRPNSVIGTITQDFQERVAINEGDSNKTPENSTTVALKGKKLGKALLQKMNIKPATSPNSSNAINPFFDPESPNKGKLILSSVPPLPYDETDETTLRVSRGENEKS
Q: B1 was tested. Which Kd [5] did it give?
A: 6.9 µM

B2: Vac17-MIS (Myo2-interacting sequence of Vac17) (domain or fragment)
chain: PNEAPNDSPQSQSTRSSLGSFQPRPLKIIERQRLCMVTPSKPPKKS
modifications: Limits taken from 6IXQ: the fusion as Smy1-MIS, TEV site, SG linker, Myo2-GTD, assumed uncleaved as a single chain; the linker is part of the fusion
Q: How did the Kd [6] turn out when B2 was run?
A: 0.32 µM

Q: How did the Kd [7] turn out when NHGFHLDILKGRK [Inp2] was run?
A: 32 µM

B3: Kar9^N (N-terminal folded domain of Kar9) (domain or fragment)
chain: MDNDGPRSMTIGDDFQENFCERLERIHNTLHSINDCNSLNESTTSISETLLVQFYDDLENVASVIPDLVNKKRLGKDDILLFMDWLLLKKYMLYQFISDVHNIEEGFAHLLDLLEDEFSKDDQDSDKYNRFSPMFDVIEESTQIKTQLEPWLTNLKELLDTSLEFNEISKDHMDTLHKIINSNISYCLEIQEERFASPIRHTPSFTLEQLVKLLGTHTETTEPKVPKFSPAEDILSRKFLNLKKNIPPIEKSLTDILPQRIVQFGHRNITNITTLQTILQKKYELIMKDYRFMNSEFRELKVELIDKRWNILFINLNHELLYILDEIERLQSKLLTTKYTKDITIRLERQLERKSKTVSKTFNIIYRALEFSLLDAGVASKTNELAQRWLNIKPTADKILIKSSASNKIATSKKKIPKPKSLGFGRPNSVIGTITQDFQERVAINEGDSNKTPENSTTVALKGKKLGKALLQKMNIKPATSPNSSNAINPFFDPESPNKGKLILSSVPPLPYDETDETTLRVSRGENEKSPDSFITSRHENKVQITETPLMAKNKSVLDIEKDKWNHYRSLPSRIPIYKDKVVKVTVENTPIAKVFQTPPTKITTPNSQVWVPSTRRRTRLRPPTPLSQLLSPREGRLDKTPTY
Q: Which Kd (Myo2-GTD Y1303A) does the source give for B3 here?
A: 16 µM

Q: What about the Kd (Myo2-GTD D1297N) of the same molecule?
A: 16 µM

B4: Kar9^N (N-terminal folded domain of Kar9) (domain or fragment)
chain: MDNDGPRSMTIGDDFQENFCERLERIHNTLHSINDCNSLNESTTSISETLLVQFYDDLENVASVIPDLVNKKRLGKDDILLFMDWLLLKKYMLYQFISDVHNIEEGFAHLLDLLEDEFSKDDQDSDKYNRFSPMFDVIEESTQIKTQLEPWLTNLKELLDTSLEFNEISKDHMDTLHKIINSNISYCLEIQEERFASPIRHTPSFTLEQLVKLLGTHTETTEPKVPKFSPAEDILSRKFLNLKKNIPPIEKSLTDILPQRIVQFGHRNITNITTLQTILQKKYELIMKDYRFMNSEFRELKVELIDKRWNILFINLNHELLYILDEIERLQSKLLTTKYTKDITIRLERQLERKSKTVSKTFNIIYRALEFSLLDAGVASKTNELAQRWLNIKPTADKILIKSSASNKIATSKKKIPKPKSLGFGRPNSVIGTITQDFQERVAINEGDSNKTPENSTTVALKGKKLGKALLQKMNIKPATSPNSSNAINPFFDPESPNKGKLILSSVPPLPYDETDETTLRVSRGENEKSPDSFITSRHENKVQITETPLMAKNKSVLDIEKDKWNHYRSLPSRIPIYKDKVVKVTVENTPIAKVFQTPPTKITTPNSQVWVPSTRRRTRLRPPTPLSQLLSPREGRLDKTPTY
modifications: Limits taken from 6IXQ: the fusion as Smy1-MIS, TEV site, SG linker, Myo2-GTD, assumed uncleaved as a single chain; the linker is part of the fusion
Q: For B4, which Kd [6] is on record?
A: 17 µM

Q: How did the Kd (Myo2-GTD Y1303A) turn out when SSSSIATTGSQESFVARPFKKGLNLHSIKVTSSTPK (domain or fragment) [Smy1-MIS (Myo2-interacting sequence of Smy1)] was run?
A: 14 µM

Q: What about the Kd [7] of the same molecule?
A: 21 µM

Q: And the Kd (Myo2-GTD D1297N)?
A: 14 µM

B5: Kar9^C-MIS (Myo2-interacting sequence in the C-terminal region of Kar9) (domain or fragment)
chain: ALKGKKLGKALLQKMNIKPATSPNSSNAINPFFDPESPNKGKLILSSVPPLPY
Q: What does the source list for B5?
A: Kd (Myo2-GTD Y1303A): 7.1 µM; Kd (Myo2-GTD W1407A): 7.5 µM; Kd (Myo2-GTD L1331S): 8.9 µM; Kd (Myo2-GTD D1297N): 7.7 µM; Kd [5]: 7.7 µM

B6: GST-Pea2-CC1 (GST-tagged Pea2-CC1; dimer) (domain or fragment)
chain: AIQEEDSSKKLEELETAFSDLQLAHNFLTKQFENDRAEYVQDIEKLTRTNRELQDKLLNNHSNLSKTEKKLHELEQENKELEKANNKLNSSRH
modifications: N-terminal GST (pGEX-4T-1) left out; GST drives the dimerization Limits taken from 6IXQ: the fusion as Smy1-MIS, TEV site, SG linker, Myo2-GTD, assumed uncleaved as a single chain; the linker is part of the fusion
Q: With B6 as the molecule, how does the Kd [6] read?
A: 12 µM

B7: Mmr1 (peptide)
chain: GNSARIPCPKTRLARVSVLDLKKIEEQPDSSSG
modifications: Limits taken from 6IXQ: the fusion as Smy1-MIS, TEV site, SG linker, Myo2-GTD, assumed uncleaved as a single chain; the linker is part of the fusion
Q: B7 was tested. Which Kd [6] did it give?
A: 6.2 µM

Q: For GNSARIPCPKTRLARVSVLDLKKIEEQPDSSSG, which Kd [7] is on record?
A: 6.8 µM

Q: And the Kd (Myo2-GTD D1297N)?
A: 21 µM
